Data published in US20140093514A1 (UNIVERSITY OF ZURICH, published 2014).
Like-named read-outs stand apart in the source and are kept apart here.

T1: recombinant MAGEA1 (UniProt P43355 1-309, limits assumed)
T1 construct: also called CT1.1
T1 sequence (looked up): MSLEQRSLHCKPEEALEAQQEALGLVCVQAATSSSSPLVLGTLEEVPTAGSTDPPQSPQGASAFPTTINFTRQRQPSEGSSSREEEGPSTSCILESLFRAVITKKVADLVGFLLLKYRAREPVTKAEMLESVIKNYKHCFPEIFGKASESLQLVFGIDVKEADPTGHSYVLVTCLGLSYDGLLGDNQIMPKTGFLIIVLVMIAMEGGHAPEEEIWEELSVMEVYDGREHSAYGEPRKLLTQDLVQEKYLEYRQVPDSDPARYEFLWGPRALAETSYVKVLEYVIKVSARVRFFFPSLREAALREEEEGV

T2: MAGEA3 peptide No 5
T2 construct: member of the group m18; also called 20mer peptide, amino acids 41-60 of MAGEA3
T2 peptide: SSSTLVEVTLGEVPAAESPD

T3: recombinant MAGEA4 (UniProt P43358 1-317, limits assumed)
T3 construct: also called CT1.4
T3 sequence (looked up): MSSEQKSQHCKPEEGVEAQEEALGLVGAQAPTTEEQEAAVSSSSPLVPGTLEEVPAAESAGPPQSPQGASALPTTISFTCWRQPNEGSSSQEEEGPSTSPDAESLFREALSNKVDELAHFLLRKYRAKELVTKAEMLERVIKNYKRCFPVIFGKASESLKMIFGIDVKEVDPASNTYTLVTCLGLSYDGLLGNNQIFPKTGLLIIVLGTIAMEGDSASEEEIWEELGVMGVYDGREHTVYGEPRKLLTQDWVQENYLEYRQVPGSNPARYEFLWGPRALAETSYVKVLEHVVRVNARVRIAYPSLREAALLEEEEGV

T4: MAGEA3 peptide No 10
T4 construct: member of the group m18; also called 20mer peptide, amino acids 91-110 of MAGEA3
T4 peptide: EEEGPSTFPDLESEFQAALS

T5: MAGEA3 peptide No 22
T5 construct: member of the group m18; also called 20mer peptide, amino acids 211-230 of MAGEA3
T5 peptide: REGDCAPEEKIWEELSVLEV


Legend:
[1] = target: T6, recombinant MAGEA3 protein (human, UniProt P43357 1-314); assay: ELISA, recombinant MAGEA3 coated to plastic, serial dilutions of antibody, OD 450 nm
T6 construct: In Experiment 4C MAGEA3 was also expressed in transiently transfected HEK293T cells (fixed and permeabilized); also called His-tagged MAGEA3; CT1.3
T6 sequence (P43357 whole entry): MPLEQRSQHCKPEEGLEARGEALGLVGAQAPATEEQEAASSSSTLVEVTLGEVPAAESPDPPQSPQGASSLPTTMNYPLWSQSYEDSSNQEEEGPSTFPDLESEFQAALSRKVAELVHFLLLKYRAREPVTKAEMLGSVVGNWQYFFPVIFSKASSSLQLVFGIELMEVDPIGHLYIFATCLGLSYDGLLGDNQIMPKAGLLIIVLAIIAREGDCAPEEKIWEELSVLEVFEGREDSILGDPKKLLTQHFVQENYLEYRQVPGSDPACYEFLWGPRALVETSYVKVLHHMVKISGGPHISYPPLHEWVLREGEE
Method: FIG. 4 EC50 determination of recombinant human monoclonal antibodies to MAGEA3. MAGEA3-ELISA was carried out using recombinant MAGEA3 coated to plastic and serial dilutions of the human monoclonal antibodies 21B4, 54B4, 94G11, 9A5, 31H10, 43B10, 2G4, 20C10, 26C9 and 4D6 (A-J). EC50 values are indicated in each figure.
(§1) The EC₅₀, the concentration at which half-maximal binding of the antibody to its antigen is observed was determined in MAGEA3 ELISA using serial dilutions of the human monoclonal antibodies 21B4, 54B4, 94G11, 9A5, 31H10, 43B10, 2G4, 20C10, 26C9 and 4D6. EC50 values were determined mathematically by derivation of the best-fit line using GraphPad software.

recombinant MAGEA10 = target: T7, recombinant MAGEA10 (UniProt P43363 1-369, limits assumed); assay: ELISA on coated recombinant MAGEA proteins, serial dilutions of antibody (concentrations not printed on the sheet)
T7 construct: also called CT1.10
T7 sequence (P43363 whole entry): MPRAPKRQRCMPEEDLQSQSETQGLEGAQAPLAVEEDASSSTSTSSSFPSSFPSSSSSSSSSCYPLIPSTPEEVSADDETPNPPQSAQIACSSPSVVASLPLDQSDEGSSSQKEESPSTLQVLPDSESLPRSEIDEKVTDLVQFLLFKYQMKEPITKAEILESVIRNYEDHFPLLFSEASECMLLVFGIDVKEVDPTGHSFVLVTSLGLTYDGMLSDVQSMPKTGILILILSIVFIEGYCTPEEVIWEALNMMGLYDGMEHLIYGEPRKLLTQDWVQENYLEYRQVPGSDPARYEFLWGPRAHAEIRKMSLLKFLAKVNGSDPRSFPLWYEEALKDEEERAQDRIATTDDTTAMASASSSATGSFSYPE
Method: (§2) Recombinantly expressed MAGEA3, MAGEA1, MAGEA4, MAGEA10 were coated on ELISA plates and binding of MAGEA3 antibodies 21B4, 94G11, 2G4, 9A5 and 54B4 to these proteins was tested. The results are depicted in FIG. 3B).

recombinant MAGEA1 = target: T1, recombinant MAGEA1; assay: as above
Method: as §2

MAGEA3 peptide No 5 = target: T2, MAGEA3 peptide No 5; assay: ELISA on plates coated with overlapping 20mer MAGEA3 peptides; antibody 9A5 at '4 mg/ml' as printed in paragraph 376; HRP goat anti-human IgG Fc-gamma
Method: (§3) 20mer peptides spanning the entire MAGEA3 protein with 10 aa overlaps shared by each adjacent peptide (Peptides&Elephants, Nuthetal, Germany) were used to coat Maxisorp ELISA plates (Nunc, Rochester, N.Y.). As control a 20mer peptide representing amino acids 40-21 from the NY-ESO-1 protein was used (rev). The numbering of amino acids of MAGEA3 is based on SEQ ID No.: 101.
(§4) Human recombinant antibody was used at a concentration of 1 μg/ml with the exception of antibody 9A5 which was used at […]. Bound human antibody was detected using horseradish peroxidase-conjugated goat anti-human IgG Fc-gamma specific antibodies (Jackson ImmunoResearch, Europe Ltd., Cambridgeshire, UK).

recombinant MAGEA4 = target: T3, recombinant MAGEA4; assay: Western blot; recombinant MAGEA4 in lane B, human antibody as probe
Method: Membranes were incubated with human antibodies 21B4, 54B4, 94G11, 9A5, 31H10, 43B10, 2G4 or 20C10. Binding of human antibodies to proteins on the membrane was evaluated. The results are depicted in FIG. 3A).

MAGEA6 = target: T8, MAGEA6 (UniProt P43360 1-314, limits assumed); assay: flow cytometry on fixed, permeabilized HEK293T cells transiently transfected with MAGEA6; PE-labeled anti-human antibody
T8 construct: whole, on cells; Intracellular antigen: the transfected cells were fixed and permeabilized before staining; also called CT1.6
T8 sequence (P43360 whole entry): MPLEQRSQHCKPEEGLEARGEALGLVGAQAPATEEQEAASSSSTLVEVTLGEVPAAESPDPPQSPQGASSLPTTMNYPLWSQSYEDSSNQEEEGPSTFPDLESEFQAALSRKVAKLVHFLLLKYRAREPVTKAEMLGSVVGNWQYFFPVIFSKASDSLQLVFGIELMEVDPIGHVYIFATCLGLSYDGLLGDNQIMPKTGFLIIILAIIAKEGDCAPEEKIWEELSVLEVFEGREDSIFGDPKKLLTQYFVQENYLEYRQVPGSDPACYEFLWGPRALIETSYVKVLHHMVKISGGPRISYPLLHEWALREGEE
Method: HEK293T cells transiently transfected with MAGEA3 or MAGE A6 were fixed and permeabilized and incubated with human-derived antibodies. Binding of human-derived antibodies to the cells was detected by flow cytometry using PE-labeled anti-human antibodies. […] Filled histograms show binding of 21B4, 31H10, 94G11 and 54B4 to transiently transfected HEK 293 cells. Only a proportion of the cells was transfected resulting in a population expressing the transgene and in a population not expressing the transgene. […] The results are depicted in FIG. 3C).

[2] = target: T6, recombinant MAGEA3 protein; assay: ELISA, recombinant MAGEA3 coated to plastic, serial dilutions of antibody, OD 450 nm; remark: listed apart in the source
Method: His-tagged MAGEA3 expressed in bacteria was column-purified and used to coat 96 well microplates (Costar, USA). Plates were washed with PBS-T and blocked 1 h at room temperature with PBS containing 2% BSA (Sigma, Buchs, Switzerland). Patient sera, B cell conditioned medium, or recombinant antibody preparations were incubated for 2 h at room temperature. Binding of human IgG to MAGEA3 was determined using a horseradish peroxidase conjugated goat anti human Fc-gamma-specific antibody (Jackson ImmunoResearch, Europe Ltd., Cambridgeshire, UK) followed by measurement of the HRP activity using a TMB substrate solution (TMB, Sigma, Buchs, Switzerland).
as §1

MAGEA3 peptide No 10 = target: T4, MAGEA3 peptide No 10; assay: ELISA on plates coated with overlapping 20mer MAGEA3 peptides; antibody at 1 µg/ml; HRP goat anti-human IgG Fc-gamma
Method: as §3, §4

MAGEA3 peptide No 22 = target: T5, MAGEA3 peptide No 22; assay: as above
Method: as §3, §4

| Binder | EC50 [1] | binding result (recombinant MAGEA10) | binding result (recombinant MAGEA1) | binding result (recombinant MAGEA4) | binding result (MAGEA6) | EC50 [2] | also measured |
| --- | --- | --- | --- | --- | --- | --- | --- |
| 20C10 (antibody, V domains shown) VH: QLQLQESGPGLVKPSETLSLTCTVSGDSISASTDSWGWIRQSPGKGLEWIGVTSYSGRPYYNPSLKRRVTISVDTSKNHFSLKLTSVTAADRALYYCARRPSLIWAFDIWGQGTMVTVSS VL: QSALTQPASVSGSPEQSITISCTGTSSAVGNYNLVSWYQHHPGKAPLLIIYDVNERPSGVSHRFSGSRSGNTASLTISGLLAEDEADYFCCSYGGTSSLHYVFGTGTRVTVL | 37.3 nM |  |  |  |  |  |  |
| 9A5 (antibody, V domains shown) VH: EVQLVASGGVMVKPGGSLRLSCAASGFSFKNAWMTWVRQAPGMGLEWVGRITSKTDGETTDYAAPVKGRFTISRDDSKNILYLQMNSLKTEDTAVYYCATRTTVCYVCWGQGTLVTVSS VL: DIVLTQSPDSLAVSQGERATINCKSSQSLLYSSNNKNYLAWFQQKPGQPPKLLIYWASTRESGVPDRFSGSGSGTDFTLTISSLQAEDVAVYYCQQYYTIGWTFGPGTKVEIK | 0.259 nM | no binding | no binding | no binding |  |  | binding result (MAGEA3 peptide No 5): binds |
| 94G11 (antibody, V domains shown) VH: QVLLQESGPGLVKPSQILSLTCTVSGGSNRSVSYYWSWIRQPAGQGLEWIGRIYPSGSTHYNPSLKSRVTISVDTSKNQFSLKLSSLTAADTAMYFCAWGGYDSLGGRRLRHFDYWGQGALVTVSS VL: not shown |  | no binding | no binding | no binding | binds | 0.129 nM |  |
| 31H10 (antibody, V domains shown) VH: QVQLVESGGGVVQPGGSLRLSCAASDFTFSDHGMHWVRQAPGKGLQWVSFISHHGTNKYYIDSVKGRFIISRDNSKNTLYLQMNSLRTEDTAVYYCATVIGYFFGYGFDVWGQGTTVIVSS VL: EIVMTQSPATLSVSPGEEINLACRASHSISGNLAWYQQKPGQGPRLLIYSASTRATGISARFSGSGSGTEFTLTISSLESEDFAVYFCQQYNNWPLTFGGGTKVEIK | 0.0192 nM |  |  | no binding | binds |  | binding result (MAGEA3 peptide No 10): binds |
| 54B4 (antibody, V domains shown) VH: EVQLVESGGGLVPPGGSLRLSCAASGFTFTTYGLTWVRQAPGKGLEWISYITSSGTIIHYADSVKGRFTISRDNAKNSLYLQMNSLRAEDTAVYYCARGRRGTVVRGVMLDQWGQGTLVTVSS VL: DIQMTQSPSTLSASIGDRVTITCRASQSISRWLAWYQQKPGQAPKLLIYEASSLESGVPSRFSGSGSGTEFTLTISSLQPDDFAIYYCQQYSSYSLTFGGGTKVEIK |  |  |  | no binding | binds | 0.029 nM | binding result (MAGEA3 peptide No 22): binds |
| 43B10 (antibody, V domains shown) VH: EVQLVESGGGLVPPGGSLRLSCAASGFTFTTYGLNWVRLAPGKGLEWISYITSSGTIIHYADSVKGRFTISRDNAKNSLYLQMNSLRAEDTAVYYCARGRRGTVVRGVMLDQWGQGTLVTVSS VL: DIQMTQSPSTLSASIGDRVTIACRASQSISRWLAWYQQKPGQAPKLLIYEASSLESGVPSRFSGSGSGTEFTLTISSLQPDDFATYYCQQYSSYSLAFGGGTKVEIK |  |  |  |  |  | 0.109 nM | binding result (MAGEA3 peptide No 22): binds |
| 26C9 (antibody, V domains shown) VH: QVQLVQSGAAVKKPGSSVKVSCTASGGTFGTSGITWVRQAPGQGLEWVGRVTPILGITRYAQRFQGRVTITADTSTSTAYMELSRLRSDDTALYYCARAPEMTINSDWGQGTLVTVSS VL: QSALTQPASVSGSPGQSITISCTGTRSDVGGHNYVSWYQQDPDKAPKLIIYEVSKRPSGVSNRFSGSKSGNTASLTISGLQAEDEADYYCSSYTGTTILEVFGTGTTVTVL | 0.523 nM |  |  |  |  |  |  |
| 2G4 (antibody, V domains shown) VH: QVQLVQSGAAVKKPGSSVKVSCTASGGTFGTSGITWVRQAPGQGLEWVGRITPILGITRYGQRFQGRVTITADKSTSTAYMELSRLRSDDTALYYCARAPEMTINSDWGQGTLVTVSS VL: QSALTQPASVSGSPGQSITISCTGTRSDVGGHNYVSWYQHDPDKAPKLIIYEVSKRPSGISNRFSGSKSGNTASLTISGLQAEDEADYYCSSYTGSTILEVFGTGTTVTVL | 7.79 nM | no binding | no binding | no binding |  |  |  |
| 4D6 (antibody, V domains shown) VH: QVQLVESGGGVVQPGRSLRLSCAASGFSFSDYAMHWVRQAPGKGLEWVAVISYDGTKKYYADSVEGRLTISRDNSQNTLSLQMSGLRVEDKGVYYCARDGCDSARCSYGMDVWGQGTTVTVSS VL: EIVMTQSPSSLSASVGDRVTITCRASQDIRNDLGWYQQKPGKAPKLLIYGASTLQSGVPSRFSGSGSGTDFTLTISSLQPEDFATYYCLQDYSYRWTFGQGTKVEIK |  |  |  |  |  |  | binding result [2]: binds |
